B1: peptide HD2 (from tick evasin EVA4) / CCL17 (biotinylated, synthetic) (parent complex)
chain 1: EEDDYTAYAPLTCYFT
chain 2: ARGTNVGRECCLEYFKGAIPLRKLKTWYQTSEDCSRDAIVFVTVQGRAICSDPNNKRVKNAVKYLQSLERS

Variants of: B1

**Q.** With chain 1 EPDDYTAYAPLTCYFT [chain 1 E2P] as the variant, how does the enrichment read?
**A.** -2.4 log2 (difference from the parental peptide)

**Q.** How did the enrichment turn out when chain 1 ECDDYTAYAPLTCYFT [chain 1 E2C] was run?
**A.** -10.1 log2 (difference from the parental peptide)

**Q.** For chain 1 EEDDYSAYAPLTCYFT [chain 1 T6S], which enrichment is on record?
**A.** 2.6 log2 (difference from the parental peptide)

**Q.** With chain 1 EEDDYMAYAPLTCYFT [chain 1 T6M] as the variant, how does the enrichment read?
**A.** -0.648 log2 (difference from the parental peptide)

**Q.** For chain 1 EEDDYGAYAPLTCYFT [chain 1 T6G], which enrichment is on record?
**A.** 2.24 log2 (difference from the parental peptide)

**Q.** With chain 1 EEDDYKAYAPLTCYFT [chain 1 T6K] as the variant, how does the enrichment read?
**A.** 0.208 log2 (difference from the parental peptide)

**Q.** chain 1 EEDDYTVYAPLTCYFT [chain 1 A7V] was tested. Which enrichment did it give?
**A.** -4.48 log2 (difference from the parental peptide)

**Q.** Which enrichment does the source give for chain 1 EEDDYTYYAPLTCYFT [chain 1 A7Y] here?
**A.** -1.58 log2 (difference from the parental peptide)

**Q.** How did the enrichment turn out when chain 1 EEDDYTTYAPLTCYFT [chain 1 A7T] was run?
**A.** -1.52 log2 (difference from the parental peptide)

**Q.** How did the enrichment turn out when chain 1 EEDDYTHYAPLTCYFT [chain 1 A7H] was run?
**A.** 1.03 log2 (difference from the parental peptide)

**Q.** For chain 1 EEDDYTAYATLTCYFT [chain 1 P10T], which enrichment is on record?
**A.** -7.97 log2 (difference from the parental peptide)

**Q.** How did the enrichment turn out when chain 1 EEDDYTAYAQLTCYFT [chain 1 P10Q] was run?
**A.** -4.91 log2 (difference from the parental peptide)

**Q.** How did the enrichment turn out when chain 1 EEDDYTAYAFLTCYFT [chain 1 P10F] was run?
**A.** -7.51 log2 (difference from the parental peptide)

**Q.** With chain 1 EEDDYTAYALLTCYFT [chain 1 P10L] as the variant, how does the enrichment read?
**A.** -8.28 log2 (difference from the parental peptide)

**Q.** How did the enrichment turn out when chain 1 EEDDYTAYAPLTCPFT [chain 1 Y14P] was run?
**A.** -7.37 log2 (difference from the parental peptide)

**Q.** How did the enrichment turn out when chain 1 EEDDYTAYAPLTCAFT [chain 1 Y14A] was run?
**A.** -6.44 log2 (difference from the parental peptide)

**Q.** chain 1 EEDDYTASAPLTCYFT [chain 1 Y8S] was tested. Which enrichment did it give?
**A.** -8.85 log2 (difference from the parental peptide)

**Q.** For chain 1 KEDDYTAYAPLTCYFT [chain 1 E1K], which enrichment is on record?
**A.** -0.679 log2 (difference from the parental peptide)

**Q.** With chain 1 GEDDYTAYAPLTCYFT [chain 1 E1G] as the variant, how does the enrichment read?
**A.** 0.607 log2 (difference from the parental peptide)

**Q.** chain 1 TEDDYTAYAPLTCYFT [chain 1 E1T] was tested. Which enrichment did it give?
**A.** -0.325 log2 (difference from the parental peptide)

**Q.** How did the enrichment turn out when chain 1 YEDDYTAYAPLTCYFT [chain 1 E1Y] was run?
**A.** -0.248 log2 (difference from the parental peptide)

**Q.** chain 1 QEDDYTAYAPLTCYFT [chain 1 E1Q] was tested. Which enrichment did it give?
**A.** 0.156 log2 (difference from the parental peptide)

**Q.** How did the enrichment turn out when chain 1 WEDDYTAYAPLTCYFT [chain 1 E1W] was run?
**A.** -2.36 log2 (difference from the parental peptide)

**Q.** How did the enrichment turn out when chain 1 EEDDHTAYAPLTCYFT [chain 1 Y5H] was run?
**A.** -5.84 log2 (difference from the parental peptide)

**Q.** Which enrichment does the source give for chain 1 EEDDATAYAPLTCYFT [chain 1 Y5A] here?
**A.** -5.17 log2 (difference from the parental peptide)

**Q.** How did the enrichment turn out when chain 1 EEDDYTAYAPLTIYFT [chain 1 C13I] was run?
**A.** -2.82 log2 (difference from the parental peptide)

**Q.** chain 1 EEDEYTAYAPLTCYFT [chain 1 D4E] was tested. Which enrichment did it give?
**A.** -0.373 log2 (difference from the parental peptide)

**Q.** Which enrichment does the source give for chain 1 EEDYYTAYAPLTCYFT [chain 1 D4Y] here?
**A.** -5.69 log2 (difference from the parental peptide)

**Q.** Which enrichment does the source give for chain 1 EEDTYTAYAPLTCYFT [chain 1 D4T] here?
**A.** -5.39 log2 (difference from the parental peptide)

**Q.** With chain 1 EEDWYTAYAPLTCYFT [chain 1 D4W] as the variant, how does the enrichment read?
**A.** -7.69 log2 (difference from the parental peptide)

**Q.** For chain 1 EEDQYTAYAPLTCYFT [chain 1 D4Q], which enrichment is on record?
**A.** -3.42 log2 (difference from the parental peptide)

**Q.** With chain 1 EEDDYTAYAPLVCYFT [chain 1 T12V] as the variant, how does the enrichment read?
**A.** -0.896 log2 (difference from the parental peptide)

**Q.** chain 1 EEDDYTAYAPLCCYFT [chain 1 T12C] was tested. Which enrichment did it give?
**A.** -3.34 log2 (difference from the parental peptide)

**Q.** How did the enrichment turn out when chain 1 EEDDYTAYAPPTCYFT [chain 1 L11P] was run?
**A.** -5.62 log2 (difference from the parental peptide)

**Q.** Which enrichment does the source give for chain 1 EEDDYTAYAPSTCYFT [chain 1 L11S] here?
**A.** -0.205 log2 (difference from the parental peptide)

**Q.** Which enrichment does the source give for chain 1 EEDDYTAYAPRTCYFT [chain 1 L11R] here?
**A.** 3.2 log2 (difference from the parental peptide)

**Q.** How did the enrichment turn out when chain 1 EEDDYTAYAPFTCYFT [chain 1 L11F] was run?
**A.** -0.993 log2 (difference from the parental peptide)

**Q.** For chain 1 EEDDYTAYAPHTCYFT [chain 1 L11H], which enrichment is on record?
**A.** 2.36 log2 (difference from the parental peptide)

**Q.** Which enrichment does the source give for chain 1 EEDDYTAYLPLTCYFT [chain 1 A9L] here?
**A.** -7.01 log2 (difference from the parental peptide)

**Q.** chain 1 EEDDYTAYNPLTCYFT [chain 1 A9N] was tested. Which enrichment did it give?
**A.** -4.52 log2 (difference from the parental peptide)

**Q.** How did the enrichment turn out when chain 1 EEDDYTAYQPLTCYFT [chain 1 A9Q] was run?
**A.** -1.77 log2 (difference from the parental peptide)

**Q.** chain 1 EEDDYTAYTPLTCYFT [chain 1 A9T] was tested. Which enrichment did it give?
**A.** -4.51 log2 (difference from the parental peptide)

**Q.** Which enrichment does the source give for chain 1 EEDDYTAYRPLTCYFT [chain 1 A9R] here?
**A.** -4.45 log2 (difference from the parental peptide)

**Q.** Which enrichment does the source give for chain 1 EEDDYTAYSPLTCYFT [chain 1 A9S] here?
**A.** -0.697 log2 (difference from the parental peptide)

**Q.** With chain 1 EEQDYTAYAPLTCYFT [chain 1 D3Q] as the variant, how does the enrichment read?
**A.** -1.63 log2 (difference from the parental peptide)

**Q.** For chain 1 EESDYTAYAPLTCYFT [chain 1 D3S], which enrichment is on record?
**A.** -2.79 log2 (difference from the parental peptide)

**Q.** Which enrichment does the source give for chain 1 EERDYTAYAPLTCYFT [chain 1 D3R] here?
**A.** -5.97 log2 (difference from the parental peptide)

**Q.** chain 1 EEWDYTAYAPLTCYFT [chain 1 D3W] was tested. Which enrichment did it give?
**A.** -4.02 log2 (difference from the parental peptide)

**Q.** With chain 1 EEMDYTAYAPLTCYFT [chain 1 D3M] as the variant, how does the enrichment read?
**A.** -4.48 log2 (difference from the parental peptide)

**Q.** How did the enrichment turn out when chain 1 EEDDYTAYAPLTCYFF [chain 1 T16F] was run?
**A.** -0.625 log2 (difference from the parental peptide)

**Q.** For chain 1 EEDDYTAYAPLTCYFW [chain 1 T16W], which enrichment is on record?
**A.** -1.23 log2 (difference from the parental peptide)

**Q.** Which enrichment does the source give for chain 1 EEDDYTAYAPLTCYFN [chain 1 T16N] here?
**A.** 0.157 log2 (difference from the parental peptide)

**Q.** chain 1 EEDDYTAYAPLTCYFQ [chain 1 T16Q] was tested. Which enrichment did it give?
**A.** 1.17 log2 (difference from the parental peptide)

**Q.** chain 1 EEDDYTAYAPLTCYFI [chain 1 T16I] was tested. Which enrichment did it give?
**A.** -0.321 log2 (difference from the parental peptide)

**Q.** How did the enrichment turn out when chain 1 EEDDYTAYAPLTCYFE [chain 1 T16E] was run?
**A.** 1.12 log2 (difference from the parental peptide)

**Q.** With chain 1 EEDDYTAYAPLTCYFY [chain 1 T16Y] as the variant, how does the enrichment read?
**A.** -0.84 log2 (difference from the parental peptide)

Reference: publication PMC11969024 (2025)
